From article PMC5087277 (ACS chemical biology, 2016)
Values belong to the compound of their own block, whether it stands above or below them.

Legend:
[1] = target: ClpXP (sc6ClpXΔN-bio with ClpP; ATP site on ClpX) (Escherichia coli, UniProt P0A6H1, C169S/K408E); test: bio-layer interferometry, ClpP association to immobilised ClpX; format: binding
[2] = tested on: Nc1ncnc2c1ncn2[C@@H]1O[C@H](COP(=O)(O)OP(=O)(O)OP(=O)(O)O)[C@@H](O)[C@H]1O; test: coupled ATP hydrolysis assay; format: biochemical, Escherichia coli; settings: pH 7.5
[3] = tested on: ^sc6ClpX^ΔN-bio single-chain ClpX^ΔN pseudohexamer; test: BLI
[4] = target: ^sc6ClpX^ΔN-bio single-chain ClpX^ΔN pseudohexamer (E. coli); test: BLI
[5] = excess ClpP (1 μM), Hill n = 2.2, 10 mM MgCl2, 30 °C
[6] = no ClpP, Hill n = 2.4, 10 mM MgCl2, 30 °C

Compound: Nc1ncnc2c1ncn2[C@@H]1O[C@H](COP(=O)(O)OP(=O)(O)OP(=O)(O)O)[C@@H](O)[C@H]1O [ATP]
EC50 [1]: 100 ± 2 µM

Compound: ClpXP (sc6ClpXΔN-bio with ClpP; ATP site on ClpX) (Escherichia coli K-12; C169S/K408E)
K0.5 [2, 5]: 29 µM | kcat [2, 5]: 41 min^−1 enz^−1

Compound: E. coli ClpP (C91V, C113A)
kobs of association at 200 nM ClpP, maximal fitted value against ATP [3]: 0.138 ± 0.001 s^−1 for kobs | maximal rate of kobs-1 (double-exponential association, amplitude ~70%) [3]: the maximal rate was 22 ± 7 s^−1 | maximal rate of kobs-2 (double-exponential association, amplitude ~30%) [3]: the maximal rate was 0.54 ± 0.2 s^−1

Kd [4]: < 0.0001 µM | dissociation rate constant in the absence of nucleotide or presence of ADP [4]: < 0.07 s⁻¹ | fold more kinetically stable in 7:1 ADP:ATP against ADP alone [4]: 100 fold | half-life of ADEP-2B-induced dissociation [4]: 1 s | half-life of dissociation in ADP (complex formed with ATP) [4]: 5 s | half-life of dissociation in ADP (complex formed with ATPγS) [4]: 20 s | half-maximal binding, total ClpP concentration [4]: 160 pM | maximum dissociation rate constant with ADEP-2B (hyperbolic fit) [4]: 2 s⁻¹
Compound: E. coli ClpP (C91V, C113A) (enzyme)

Compound: sc6ClpXΔN-bio (Escherichia coli K-12; C169S/K408E)
K0.5 [2, 6]: 42 ± 3 µM | kcat [2, 6]: 73 min^−1 enz^−1
